The RNAGym collection of RNA variant scans (doi:10.1073/pnas.2313332121)
This sample holds only a part of the variants without activity.

B1: TPR 5TU (parent)
chain: GGAUCUUCUCGAUCUAACAAAAAAGACAAAUCUGCCACAAAGCUUGAGAGCAUCUUCGGAUGCAGAGGCGGCAGCCUUCGGUGGCGCGAUAGCGCCAACGUUCUCAACUAUGACACGCAAAACGCGUGCUCCGUUGAAUGGAGUUUAUCAUG

Variants of: B1
Test: polymerase ribozyme fitness, log enrichment relative to wild type (log ratio); higher = more active; in vitro selection for triplet polymerase activity
Procedure, shortened: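 Mutant libraries of both subunits of a heterodimeric triplet polymerase ribozyme were PCR-built, transcribed, and selected once in triplicate, with frozen incubation at −7 °C and capture of gel-excised extended constructs on streptavidin beads before RT-PCR. Illumina sequencing of input and output libraries was filtered to genotypes with ≥10 input reads and ≥1 read per output. Fitness is the logarithm of genotype enrichment over wild-type enrichment, using inverse-variance-weighted replicate averages. The logarithm is base 2.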

Variant | polymerase ribozyme fitness (log ratio)
GGAUCUUCUCGAUCUAACAAAAAAGACAAAUCUGCCACAAAGCUUGAGAGCAUCUUCGGAUGCAGAGGCGGCAGCCUUCGGUGGUGCGAUAGCGCCAACGUUCUCAACUAUGACACGCAAAACGAGUGCUCCGUUGAAUGGAGUUUAUCAUG [C85U C125A] | -1.45
GGAUCUUCUCGAUCUAACAAAAAAGACAAAUCUGCCACAAAGCUUGAGAGCAUCUUCGGAUGCAGAGGCGGCAGCCUUCGGUGGUGCGAUAGCGACAACGUUCUCAACUAUGACACGCAAAACGCGUGCUCCGUUGAAUGGAGUUUAUCAUG [C85U C95A] | -0.427
GGAUCUUCUCGAUCUAACAAAAAAGACAAAUCUGCCACAAAGCUUGAGAGCAUCUUCGGAUGCAGAGGCGGCAGCCUUCGGUGGUGCGAUAGCGCCAACGUUCUCAACUAUGAAACGCAAAACGCGUGCUCCGUUGAAUGGAGUUUAUCAUG [C85U C114A] | -3.52
GGAUCUUCUCGAUCUAACAAAAAAGACAAAUCUGCCACAAAGCUUGAGAGCAUCUUCGGAUGCAGAGGCGGCAGCCUUCGGUGGUGCGAUAGCGCCAACGUUCUCAACUAUGACACGCAAAACGCUUGCUCCGUUGAAUGGAGUUUAUCAUG [C85U G126U] | -1.6
GGAUCUUCUCGAUCUAACAAAAAAGACAAAUCUGCCACAAAGCUUGAGAGCAUCUUCGGAUGCAGAGGCGGCAGCCUUCGGUGGUGCGAUAGCGCCAACGUUCUCAACUAUGACACGCAAAACGCAUGCUCCGUUGAAUGGAGUUUAUCAUG [C85U G126A] | 0.641
GGAUCUUCUCGAUCUAACAAAAAAGACAAAUCUGCCACAAAGCUUGAGAGCAUCUUCGGAUGCAGAGGCGGCAGCCUUCGGUGGUGCGAUAGCGCCAACGUUCUCAACUAUGACACGCAAAACGCCUGCUCCGUUGAAUGGAGUUUAUCAUG [C85U G126C] | -1.23
GGAUCUUCUCGAUCUAACAAAAAAGACAAAUCUGCCACAAAGCUUGAGAGCAUCUUCGGAUGCAGAGGCGGCAGCCUUCGGUGGUGCGAUAGCGCCAACGUUCUCAACUAUGACACGCAAAACGCGUGCUCCGUUGAAUGGAGUUCAUCAUG [C85U U146C] | -0.574
GGAUCUUCUCGAUCUAACAAAAAAGACAAAUCUGCCACAAAGCUUGAGAGCAUCUUCGGAUGCAGAGGCGGCAGCCUUCGGUGGUGCAAUAGCGCCAACGUUCUCAACUAUGACACGCAAAACGCGUGCUCCGUUGAAUGGAGUUUAUCAUG [C85U G88A] | -3.73
GGAUCUUCUCGAUCUAACAAAAAAGACAAAUCUGCCACAAAGCUUGAGAGCAUCUUCGGAUGCAGAGGCGGCAGCCUUCGGUGGUGCGAUAGCGCCAAGGUUCUCAACUACGACACGCAAAACGCGUGCUCCGUUGAAUGGGGUUUAUCAUG [C85U C99G U111C A142G] | ≤ -4.2
GGAUCUUCUCGAUCUAACAAAAAAGACAAAUCUGCCACAAAGCUUGAGAGCAUCUUCGGAUGCAGAGGCGGCAGCCUUCGGUGGUGCGAUAGCGCCAACGUUCACAACUAUGACACGCAAAACGCGUGCUCCGUUGAAUGGAGAUUAUCAUG [C85U U104A U144A] | -0.68
GGAUCUUCUCGAUCUAACAAAAAAGACAAAUCUGCCACAAAGCUUGAGAGCAUCUUCGGAUGCAGAGGCGGCAGCCUUCGGUGGUGCGAUAGCGCAAACGUUCUCAACUAUGACACGCAAAACGCGUGCUCCGUUGAAUGGAGUUUAUCAUG [C85U C96A] | -0.931
GGAUCUUCUCGAUCUAACAAAAAAGACAAAUCUGCCACAAAGCUUGAGAGCAUCUUCGGAUGCAGAGGCGGCAGCCUUCGGUGGCACGAUAGGGCCAAGGUUCUCAACUAUGACACGCAAAACGCGUGCUCCGUUGAAUGGAGUUAAUCAUG [G86A C93G C99G U146A] | -3.32
GGAUCUUCUCGAUCUAACAAAAAAGACAAAUCUGCCACAAAGCUUGAGAGCAUCUUCGGAUGCAGAGGCGGCAGCCUUCGGUGGUGCGAUAGCGCCAACGUUCUCAAGUAUGACACGCAAAACGCGUGCUCCGUUGAAUGGAAUUUAUCGUG [C85U C108G G143A A150G] | -3.95
GGAUCUUCUCGAUCUAACAAAAAAGACAAAUCUGCCACAAAGCUUGAGAGCAUCUUCGGAUGCAGAGGCGGCAGCCUUCGGUGGUGCGAUAGAGCCAACGUUCUCAACUAUGACACGCAAAACGCGUGCUCCGUUGAAUGGAGUUUAUCAUG [C85U C93A] | -2.72
GGAUCUUCUCGAUCUAACAAAAAAGACAAAUCUGCCACAAAGCUUGAGAGCAUCUUCGGAUGCAGAGGCGGCAGCCUUCGGUGGUGCGAUAGUGCCAACGUUCUCAACUAUGACACGCAAAACGCGUGCUCCGUUGAAUGGAGUUUAUCAUG [C85U C93U] | -1.93
GGAUCUUCUCGAUCUAACAAAAAAGACAAAUCUGCCACAAAGCUUGAGAGCAUCUUCGGAUGCAGAGGCGGCAGCCUUCGGUGGCAUGAUAGCGCCAACGUUCUCAACUAUGACACGCAAAACGCGUGCUCCGUUGAAUGGAGUUUAUCAUG [G86A C87U] | -3.65
GGAUCUUCUCGAUCUAACAAAAAAGACAAAUCUGCCACAAAGCUUGAGAGCAUCUUCGGAUGCAGAGGCGGCAGCCUUCGGUGGUGCGAUAGCGCCAACGUUCUCAACUAUGACACGCAAAACGCGUGCUCCGUCGAAUGGAGUUUAUCAUG [C85U U135C] | -2.09
GGAUCUUCUCGAUCUAACAAAAAAGACAAAUCUGCCACAAAGCUUGAGAGCAUCUUCGGAUGCAGAGGCGGCAGCCUUCGGUGGUGCGAUAGCGCCAACGUUCUCAACUAUGACACGCAAAACGCGUGCUCCGUAGAAUGGAGUUUAUCAUG [C85U U135A] | -0.52
GGAUCUUCUCGAUCUAACAAAAAAGACAAAUCUGCCACAAAGCUUGAGAGCAUCUUCGGAUGCAGAGGCGGCAGCCUUCGGUGGUGCGAUAGCGCCAACGUUCUCAACUAUGACACGCAAAAUGCGCGCUCCGUUGAAUGGAGUUUAUCAUG [C85U C123U U127C] | -1.83

Variant | polymerase ribozyme fitness (log ratio)
GGAUCUUCUCGAUCUAACAAAAAAGACAAAUCUGCCACAAAGCUUGAGAGCAUCUUCGGAUGCAGAGGCGGCAGCCUUCGGUGGUGCGAUAGCUCCAACGUUCUCAACUAUGACACGCAAAACGCGUGCUCCGUUGAAUGGAGUUUAUCAUG [C85U G94U] | 0.0431
GGAUCUUCUCGAUCUAACAAAAAAGACAAAUCUGCCACAAAGCUUGAGAGCAUCUUCGGAUGCAGAGGCGGCAGCCUUCGGUGGCACGUUAGCGCCAACGUUCUCAACUAUGACACGCAAAACGCGUGCUCCGUUGAAUGGAGCUUAUCAUG [G86A A89U U144C] | -1.64
GGAUCUUCUCGAUCUAACAAAAAAGACAAAUCUGCCACAAAGCUUGAGAGCAUCUUCGGAUGCAGAGGCGGCAGCCUUCGGUGGUGCGAUAGCGCCAACGUUCUCAACUAUGACACGCAAAACACGUGCUCCGUUGAAUGCAGUUUAUCAUG [C85U G124A G141C] | -0.515
GGAUCUUCUCGAUCUAACAAAAAAGACAAAUCUGCCACAAAGCUUGAGAGCAUCUUCGGAUGCAGAGGCGGCAGCCUUCGGUGGUGCGAUAGCGCCAACGUUCUCAACUAUGACACGCAAAACGCGUGCUCCGUUGAAUGAAGUUUAUCAUG [C85U G141A] | -0.0572
GGAUCUUCUCGAUCUAACAAAAAAGACAAAUCUGCCACAAAGCUUGAGAGCAUCUUCGGAUGCAGAGGCGGCAGCCUUCGGUGGUUCGAUAGCGCCAACGUUCUUAACUAUGACACGCAAAACGCGUGCUCCGUAGAAUGGAGUUUAUCCUG [C85U G86U C105U U135A A150C] | ≤ -4.2
GGAUCUUCUCGAUCUAACAAAAAAGACAAAUCUGCCACAAAGCUUGAGAGCAUCUUCGGAUGCAGAGGCGGCAGCCUUCGGUGGUGCGAUAGCGCCAACGUUCUCAACUAUGACAUGCAAAACGCGUGCUCCGUUGAAUGGAGUUUUUCAUG [C85U C116U A147U] | 0.541
GGAUCUUCUCGAUCUAACAAAAAAGACAAAUCUGCCACAAAGCUUGAGAGCAUCUUCGGAUGCAGAGGCGGCAGCCUUCGGUGGUGCGAUAGCGACAACGUUCUCAACUAUGACACCCAAAACGCGUGCUCCGUUGAAUGGAGUUUAUCAUG [C85U C95A G117C] | -0.698
GGAUCUUCUCGAUCUAACAAAAAAGACAAAUCUGCCACAAAGCUUGAGAGCAUCUUCGGAUGCAGAGGCGGCAGCCUUCGGUGGUGCGACAGCGCCAACGUUAUCAACUAUGACACGCAAAACGCGUGCUCCGUUGAAUGGAGUUUAUCAUG [C85U U90C C103A] | ≤ -4.2
GGAUCUUCUCGAUCUAACAAAAAAGACAAAUCUGCCACAAAGCUUGAGAGCAUCUUCGGAUGCAGAGGCGGCAGCCUUCGGUGGCACGGUAGCGCCAACGUUCUCAACUAUGACACGCAAAACGCGUGCUCCGUUGAAUGGAGUUUAUCAUG [G86A A89G] | -3.55
GGAUCUUCUCGAUCUAACAAAAAAGACAAAUCUGCCACAAAGCUUGAGAGCAUCUUCGGAUGCAGAGGCGGCAGCCUUCGGUGGUGCGAUAGCGCCAACGUUCUCAACUAUGACACGCAAAACGCGUGCUCCGUUGAAUCGAGUUUAUCAUG [C85U G140C] | -2.76
GGAUCUUCUCGAUCUAACAAAAAAGACAAAUCUGCCACAAAGCUUGAGAGCAUCUUCGGAUGCAGAGGCGGCAGCCUUCGGUGGUGCGAUAGCGCCAACGUUCUGAACUAUGACACGCAAAACGCGUGCUCCGUUGAAUGGUGUUUAUCAUG [C85U C105G A142U] | -2.01
GGAUCUUCUCGAUCUAACAAAAAAGACAAAUCUGCCACAAAGCUUGAGAGCAUCUUCGGAUGCAGAGGCGGCAGCCUUCGGUGGUGCGAUAGCGCCAACGUUCUCAACUAUGACACGCAAAACGCGUGCUCCGUUGAAUUGAGUUCAUCAUG [C85U G140U U146C] | -2.87
GGAUCUUCUCGAUCUAACAAAAAAGACAAAUCUGCCACAAAGCUUGAGAGCAUCUUCGGAUGCAGAGGCGGCAGCCUUCGGUGGUGCGAUAGCGCCAACGUUCUCAACUAUGACACGGAAAACGAGUGCUCCGUUGAAUGGAGUUUAUCAUG [C85U C118G C125A] | -0.0117
GGAUCUUCUCGAUCUAACAAAAAAGACAAAUCUGCCACAAAGCUUGAGAGCAUCUUCGGAUGCAGAGGCGGCAGCCUUCGGUGGUGCGAUAGCGCCAACGUUCUCAACUAUGACACGUAAAACGCGUGCUCCGUUGAAUGUAGUUUAUCAUG [C85U C118U G141U] | 0.748
GGAUCUUCUCGAUCUAACAAAAAAGACAAAUCUGCCACAAAGCUUGAGAGCAUCUUCGGAUGCAGAGGCGGCAGCCUUCGGUGGCACGAUAGCACCAACGUUCUCAACUGUGACACGCAAAACGCGUGCUCCGUUGAAUGGAGUUUAUCAUG [G86A G94A A110G] | ≤ -4.2
GGAUCUUCUCGAUCUAACAAAAAAGACAAAUCUGCCACAAAGCUUGAGAGCAUCUUCGGAUGCAGAGGCGGCAGCCUUCGGUGGUGCGAUAGCGCCAACGUUCUCAACUAUGACACGCAAAACGCGUGCUCCGUUGAAUGGAGCUUAUCAUG [C85U U144C] | 0.118
GGAUCUUCUCGAUCUAACAAAAAAGACAAAUCUGCCACAAAGCUUGAGAGCAUCUUCGGAUGCAGAGGCGGCAGCCUUCGGUGGUGCGAUAGCGCCAACGUUCUCAACUAUGACACGCAAAACGCGUGCUCCGUUAAAUGGAGUUUAUCAUG [C85U G136A] | 0.767
GGAUCUUCUCGAUCUAACAAAAAAGACAAAUCUGCCACAAAGCUUGAGAGCAUCUUCGGAUGCAGAGGCGGCAGCCUUCGGUGGUGCGAUAGCGCCAACGUUCUCAACUAUGACACGGAAAACGCGUGCUCCGUUGAAUGGAGUUUAUCAUG [C85U C118G] | -0.62
GGAUCUUCUCGAUCUAACAAAAAAGACAAAUCUGCCACAAAGCUUGAGAGCAUCUUCGGAUGCAGAGGCGGCAGCCUUCGGUGGUGCGAUAGCGCCAACGCUCUCAACUAUGACACGCAAAACGCGUGCUCCGUUGAAUGGAGUUUAUCAUG [C85U U101C] | -0.749
